# Assay results taken from paper PMC5015263, “Casitas B-lineage lymphoma linker helix mutations found in myeloproliferative neoplasms affect conformation” (BMC Biology, 2016).
# Changes are numbered by the printed parent chain. Numbers in names are those of the source.
# B1: His-GST-N-Cbl wild-type (residues 47-435) (domain or fragment, UniProt P22681 47-435, looked up)
# chain: PPGTVDKKMVEKCWKLMDKVVRLCQNPKLALKNSPPYILDLLPDTYQHLRTILSRYEGKMETLGENEYFRVFMENLMKKTKQTISLFKEGKERMYEENSQPRRNLTKLSLIFSHMLAELKGIFPSGLFQGDTFRITKADAAEFWRKAFGEKTIVPWKSFRQALHEVHPISSGLEAMALKSTIDLTCNDYISVFEFDIFTRLFQPWSSLLRNWNSLAVTHPGYMAFLTYDEVKARLQKFIHKPGSYIFRLSCTRLGQWAIGYVTADGNILQTIPHNKPLFQALIDGFREGFYLFPDGRNQNPDLTGLCEPTPQDHIKVTQEQYELYCEMGSTFQLCKICAENDKDVKIEPCGHLMCTSCLTSWQESEGQGCPFCRCEIKGTEPIVVDPFD
# notes: Cbl (c-Cbl), N-terminal fragment with TKBD, linker helix region and RING domain (N-Cbl), residues 47-435; Modified pGEX4T1 with N-terminal His-GST tag followed by a thrombin or TEV cleavage site; tag not cleaved for SPR; also called WT; wild-type N-Cbl; not shown: His, N-terminal, kept; GST, N-terminal, kept
# B2: His-GST-N-Cbl Y371H (residues 47-435) (domain or fragment, UniProt P22681 47-435, looked up)
# chain: B1 chain with Y325H
# notes: Cbl (c-Cbl), N-terminal fragment with TKBD, linker helix region and RING domain (N-Cbl), residues 47-435; mutation identified in MDS/MPN clinical samples; Tag not cleaved for SPR; not shown: His, N-terminal, kept; GST, N-terminal, kept
# B3: His-GST-N-Cbl Y368F (residues 47-435) (domain or fragment, UniProt P22681 47-435, looked up)
# chain: B1 chain with Y322F
# notes: Cbl (c-Cbl), N-terminal fragment with TKBD, linker helix region and RING domain (N-Cbl), residues 47-435; Tag not cleaved for SPR; not shown: His, N-terminal, kept; GST, N-terminal, kept
# B4: His-GST-N-Cbl Y371S (residues 47-435) (domain or fragment, UniProt P22681 47-435, looked up)
# chain: B1 chain with Y325S
# notes: as for B2
# B5: His-GST-N-Cbl Y371D (residues 47-435) (domain or fragment, UniProt P22681 47-435, looked up)
# chain: B1 chain with Y325D
# notes: as for B2
# B6: His-GST-N-Cbl Y371C (residues 47-435) (domain or fragment, UniProt P22681 47-435, looked up)
# chain: B1 chain with Y325C
# notes: as for B2
# B7: His-GST-pTyr371-N-Cbl Y368F (residues 47-435) (domain or fragment, UniProt P22681 47-435, looked up)
# chain: B1 chain with Y322F
# modifications: phosphotyrosine at 371
# notes: Cbl (c-Cbl), N-terminal fragment with TKBD, linker helix region and RING domain (N-Cbl), residues 47-435; Y368F is required for homogeneous phosphorylation at Tyr371; also called pY371 Y368F; source: generated as described previously [6]; not shown: His, N-terminal, kept; GST, N-terminal, kept
# B8: His-GST-N-Cbl Y371F (residues 47-435) (domain or fragment, UniProt P22681 47-435, looked up)
# chain: B1 chain with Y325F
# notes: as for B3
# B9: His-GST-N-Cbl Y371A (residues 47-435) (domain or fragment, UniProt P22681 47-435, looked up)
# chain: B1 chain with Y325A
# notes: as for B3
# B10: His-GST-N-Cbl Y371E (residues 47-435) (domain or fragment, UniProt P22681 47-435, looked up)
# chain: B1 chain with Y325E
# notes: as for B3
# B11: His-GST-N-Cbl M222E (residues 47-435) (domain or fragment, UniProt P22681 47-435, looked up)
# chain: B1 chain with M176E
# notes: as for B3
# Target: T1, UbcH5B S22R C85K–Ub (UniProt P62837 1-147; P0CG47 1-76, S22R | C85K, conjugated to Ub via an isopeptide bond (non-hydrolyzable amide linkage) | conjugated to UbcH5B via an isopeptide bond)
# T1 construct: E2 ubiquitin-conjugating enzyme UbcH5B; ubiquitin (Ub); also called UbcH5B–Ub; E2–Ub; source: expressed, generated and purified as described previously [7]
# Test: SPR; GST-Cbl variants coupled to CM-5 chips; UbcH5B–Ub as analyte at 0–120 μM; Biacore T200
# Settings: both partners purified
row,Kd [µM],Binder
1,84,B1
2,39,B2
3,49,B3
4,16,B4
5,10,B5
6,36,B6
7,2.6,B7
8,84,B8
9,30,B9
10,9,B10
11,14,B11
